Assay results from patent US9738911B2, “Methods of producing 7-carbon chemicals via pyruvate and succinate semialdehyde aldol condensation” (INVISTA North America S.a r.l., priority 2012, dated 2017).

What was measured:
Format in all cases: biochemical
[1] = Carboxylate reductase activity assay, pimelate semialdehyde to heptanedial; settings: 2 mM pimelate semialdehyde, 1 mM ATP, 1 mM NADPH, enhanced by sfp gene product, room temperature, 20 min; against empty vector control (FIG. 13)
Protocol: The N-terminal His-tagged carboxylate reductase of SEQ ID NO 7 (see Example 4 and FIG. 7F) was assayed using pimelate semialdehyde as substrate. The enzyme activity assay was performed in triplicate in a buffer composed of a final concentration of 50 mM HEPES buffer (pH=7.5), 2 mM pimelate semialdehyde, 10 mM MgCl2, 1 mM ATP and 1 mM NADPH. The enzyme activity assay reaction was initiated by adding purified carboxylate reductase and phosphopantetheine transferase or the empty vector control to the assay buffer containing the pimelate semialdehyde and then incubated at room temperature for 20 min. The consumption of NADPH was monitored by absorbance at 340 nm.

[2] = Carboxylate reductase activity assay, N7-acetyl-7-aminoheptanoate to N7-acetyl-7-aminoheptanal; settings: 2 mM N7-acetyl-7-aminoheptanoate, 1 mM ATP, 1 mM NADPH, enhanced by sfp gene product, room temperature, 20 min; against empty vector control (FIG. 12)
Protocol: The activity of each of the N-terminal His-tagged carboxylate reductases of SEQ ID NOs: 3, 6, and 7 (see Examples 4, and FIGS. 7B, 7E, and 7F) for converting N7-acetyl-7-aminoheptanoate to N7-acetyl-7-aminoheptanal was assayed in triplicate in a buffer composed of a final concentration of 50 mM HEPES buffer (pH=7.5), 2 mM N7-acetyl-7-aminoheptanoate, 10 mM MgCl2, 1 mM ATP, and 1 mM NADPH. The assays were initiated by adding purified carboxylate reductase and phosphopantetheine transferase or the empty vector control to the assay buffer containing the N7-acetyl-7-aminoheptanoate then incubated at room temperature for 20 min. The consumption of NADPH was monitored by absorbance at 340 nm.

[3] = Carboxylate reductase activity assay, pimelate to pimelate semialdehyde; settings: 2 mM pimelate, 1 mM ATP, 1 mM NADPH, enhanced by sfp gene product, room temperature, 20 min; against empty vector control (FIG. 10)
Protocol: A sequence encoding a HIS-tag was added to the genes from Segniliparus rugosus and Segniliparus rotundus that encode the carboxylate reductases of SEQ ID NOs: 4 and 7, respectively (see FIGS. 7C and 7F), such that N-terminal HIS tagged carboxylate reductases could be produced. Each of the modified genes was cloned into a pET Duet expression vector along with a sfp gene encoding a HIS-tagged phosphopantetheine transferase from Bacillus subtilis, both under the T7 promoter. Each expression vector was transformed into a BL21[DE3] E. coli host and the resulting recombinant E. coli strains were cultivated at 37° C. in a 250 mL shake flask culture containing 50 mL LB media and antibiotic selection pressure, with shaking at 230 rpm. Each culture was induced overnight at 37° C. using an auto-induction media.
The pellet from each induced shake flask culture was harvested via centrifugation. Each pellet was resuspended and lysed via sonication, and the cell debris was separated from the supernatant via centrifugation. […]
Enzyme activity assays (i.e., from pimelate to pimelate semialdehyde) were performed in triplicate in a buffer composed of a final concentration of 50 mM HEPES buffer (pH=7.5), 2 mM pimelate, 10 mM MgCl, 1 mM ATP and 1 mM NADPH. […] The consumption of NADPH was monitored by absorbance at 340 nm.

B1: SEQ ID NO 7: Segniliparus rotundus carboxylate reductase (Genbank Accession No. ADG98140.1) (protein, listed as Segniliparus rotundus)
chain: MTQSHTQGPQASAAHSRLARRAAELLATDPQAAATLPDPEVVRQATRPGLRLAERVDAILSGYADRPALGQRSFQTVKDPITGRSSVELLPTFDTITYRELRERATAIASDLAHHPQAPAKPGDFLASIGFISVDYVAIDIAGVFAGLTAVPLQTGATLATLTAITAETAPTLFAASIEHLPTAVDAVLATPSVRRLLVFDYRAGSDEDREAVEAAKRKIADAGSSVLVDVLDEVIARGKSAPKAPLPPATDAGDDSLSLLIYTSGSTGTPKGAMYPERNVAHFWGGVWAAAFDEDAAPPVPAINITFLPLSHVASRLSLMPTLARGGLMHFVAKSDLSTLFEDLKLARPTNLFLVPRVVEMLYQHYQSELDRRGVQDGTREAEAVKDDLRTGLLGGRILTAGFGSAPLSAELAGFIESLLQIHLVDGYGSTEAGPVWRDGYLVKPPVTDYKLIDVPELGYFSTDSPHPRGELAIKTQTILPGYYKRPETTAEVFDEDGFYLTGDVVAQIGPEQFAYVDRRKNVLKLSQGEFVTLAKLEAAYSSSPLVRQLFVYGSSERSYLLAVIVPTPDALKKFGVGEAAKAALGESLQKIARDEGLQSYEVPRDFIIETDPFTVENGLLSDARKSLRPKLKEHYGERLEAMYKELADGQANELRDIRRGVQQRPTLETVRRAAAAMLGASAAEIKPDAHFTDLGGDSLSALTFSNFLHDLFEVDVPVGVIVSAANTLGSVAEHIDAQLAGGRARPTFATVHGKGSTTIKASDLTLDKFIDEQTLEAAKHLPKPADPPRTVLLTGANGWLGRFLALEWLERLAPAGGKLITIVRGKDAAQAKARLDAAYESGDPKLAGHYQDLAATTLEVLAGDFSEPRLGLDEATWNRLADEVDFISHPGALVNHVLPYNQLFGPNVAGVAEIIKLAITTRIKPVTYLSTVAVAAGVEPSALDEDGDIRTVSAERSVDEGYANGYGNSKWGGEVLLREAHDRTGLPVRVFRSDMILAHQKYTGQVNATDQFTRLVQSLLATGLAPKSFYELDAQGNRQRAHYDGIPVDFTAESITTLGGDGLEGYRSYNVFNPHRDGVGLDEFVDWLIEAGHPITRIDDYDQWLSRFETSLRGLPESKRQASVLPLLHAFARPGPAVDGSPFRNTVFRTDVQKAKIGAEHDIPHLGKALVLKYADDIKQLGLL
substrate acceptance, consumption of NADPH by absorbance at 340 nm [1]: accepted pimelate semialdehyde as substrate
substrate acceptance, consumption of NADPH by absorbance at 340 nm [2]: accepted N7-acetyl-7-aminoheptanoate as substrate
substrate acceptance, consumption of NADPH by absorbance at 340 nm [3]: accepted pimelate as substrate
